{
  "source": "paper PMC5816164",
  "about": "(Proceedings of the National Academy of Sciences of the …, 2018)",
  "molecules": {"B1": {"name": "Ssm Spooky Toxin (SsTx) (peptide)", "chain": "EVIKKDTPYKKRKFPYKSECLKACATSFTGGDESRIQEGKPGFFKCTCYFTTG", "modifications": "disulfide 20-46, 24-48"}},
  "key": {"KCNQ4": {"target": "KCNQ4 (Homo sapiens, UniProt P56696)", "sequence (P56696 whole entry)": "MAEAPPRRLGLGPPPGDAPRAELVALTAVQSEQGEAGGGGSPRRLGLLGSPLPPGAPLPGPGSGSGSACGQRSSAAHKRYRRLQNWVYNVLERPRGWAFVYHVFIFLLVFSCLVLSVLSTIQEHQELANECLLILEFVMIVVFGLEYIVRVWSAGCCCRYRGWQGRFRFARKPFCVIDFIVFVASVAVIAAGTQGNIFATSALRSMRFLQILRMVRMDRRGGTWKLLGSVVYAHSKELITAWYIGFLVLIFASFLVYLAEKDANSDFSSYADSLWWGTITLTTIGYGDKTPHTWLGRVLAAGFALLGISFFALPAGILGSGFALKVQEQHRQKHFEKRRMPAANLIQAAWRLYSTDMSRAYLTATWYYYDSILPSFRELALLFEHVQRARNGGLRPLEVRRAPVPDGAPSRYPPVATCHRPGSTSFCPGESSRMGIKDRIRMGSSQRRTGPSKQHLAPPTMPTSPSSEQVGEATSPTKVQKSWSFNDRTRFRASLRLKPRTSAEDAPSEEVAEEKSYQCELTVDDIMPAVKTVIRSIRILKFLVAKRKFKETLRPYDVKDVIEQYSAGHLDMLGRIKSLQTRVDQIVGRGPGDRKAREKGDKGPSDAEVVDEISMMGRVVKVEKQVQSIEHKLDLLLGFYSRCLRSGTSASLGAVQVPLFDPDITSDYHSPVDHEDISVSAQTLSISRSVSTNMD", "experiment": "Whole-cell patch clamp of KCNQ4 currents in HEK293T cells", "type": "cell-based", "details": "for effect of alanine substitution on inhibition of KCNQ4: 10 μM and 50 μM toxin mutants compared with WT SsTx (Fig. 2 A and B); for effect of conservative replacement on inhibition of KCNQ channels: 10 μM toxin, KCNQ4 currents (Fig. S2D)"}, "thoracic aorta": {"system": "thoracic aorta", "design": "species or system Sprague-Dawley rats"}, "C57BL/6J mice": {"system": "C57BL/6J mice", "experiment": "Microinjection into the hippocampus of mice", "type": "in vivo, mouse", "details": "1 μL of 20 μM SsTx and 40 μM retigabine mixture in the hippocampus"}, "mice hippocampi": {"system": "mice hippocampi", "experiment": "Acetylcholine quantification in hippocampus after microinjection", "type": "in vivo, mouse"}, "bronchial rings": {"system": "bronchial rings", "design": "species or system Sprague-Dawley rats"}, "KCNQ4_D266G": {"target": "KCNQ4_D266G (UniProt P56696)", "sequence (P56696 whole entry D266G)": "as the sequence (P56696 whole entry) above, with D266G counted along it"}, "KCNQ4_D288A": {"target": "KCNQ4_D288A (UniProt P56696)", "sequence (P56696 whole entry D288A)": "as the sequence (P56696 whole entry) above, with D288A counted along it"}},
  "note": "Bridge positions count the residues as written; N and C are the ends. Ends that are not written are not given here.",
  "data": [
    {"molecule": "K13A: SsTx single point mutant, alanine substitution of K13 (EVIKKDTPYKKRAFPYKSECLKACATSFTGGDESRIQEGKPGFFKCTCYFTTG; ends and bridges not checked; cysteine pairing not given here)", "values": [
      {"measurement": "effect of alanine substitution on inhibition of KCNQ4", "setting": "KCNQ4", "result": "reduces the toxin’s inhibitory effect on KCNQ4"}
    ]},
    {"molecule": "K10A: SsTx single point mutant, alanine substitution of K10 (EVIKKDTPYAKRKFPYKSECLKACATSFTGGDESRIQEGKPGFFKCTCYFTTG)", "values": [
      {"measurement": "effect of alanine substitution on inhibition of KCNQ4", "setting": "KCNQ4", "result": "reduces the toxin’s inhibitory effect on KCNQ4"}
    ]},
    {"molecule": "CCOC(=O)Nc1ccc(NCc2ccc(F)cc2)cc1N", "note": "[retigabine]", "values": [
      {"measurement": "effect on vessel toxicity induced by centipede crude venom and SsTx", "setting": "thoracic aorta", "result": "significantly reduced"},
      {"measurement": "effect on SsTx-induced seizure", "setting": "C57BL/6J mice", "result": "inhibited"},
      {"measurement": "effect on SsTx-induced increase in acetylcholine secretion", "setting": "mice hippocampi; mixture of 10 μM SsTx and 40 μM RTG, n = 3", "result": "inhibited the SsTx-induced increase in spiking frequency and acetylcholine secretion"},
      {"measurement": "effect on bronchial ring contraction induced by crude venom or SsTx", "setting": "bronchial rings", "result": "contraction can be reduced by retigabine"}
    ]},
    {"molecule": "O=C1N(c2ccccc2)c2ccccc2C1(Cc1ccncc1)Cc1ccncc1", "note": "[linopirdine]", "values": [
      {"measurement": "increase of acetylcholine concentration", "setting": "mice hippocampi; mice hippocampi, 1 μL of 100 μM, 30 min after microinjection, n = 6", "result": "~81.8", "unit": "%"}
    ]},
    {"molecule": "R12A: SsTx single point mutant, alanine substitution of R12 (EVIKKDTPYKKAKFPYKSECLKACATSFTGGDESRIQEGKPGFFKCTCYFTTG; ends and bridges not checked; cysteine pairing not given here)", "values": [
      {"measurement": "effect of alanine substitution on inhibition of KCNQ4", "setting": "KCNQ4", "result": "reduces the toxin’s inhibitory effect on KCNQ4"}
    ]},
    {"molecule": "K11A: SsTx single point mutant, alanine substitution of K11 (EVIKKDTPYKARKFPYKSECLKACATSFTGGDESRIQEGKPGFFKCTCYFTTG)", "values": [
      {"measurement": "effect of alanine substitution on inhibition of KCNQ4", "setting": "KCNQ4", "result": "reduces the toxin’s inhibitory effect on KCNQ4"}
    ]},
    {"molecule": "K13R: SsTx point mutant, lysine 13 replaced with arginine (EVIKKDTPYKKRRFPYKSECLKACATSFTGGDESRIQEGKPGFFKCTCYFTTG; ends and bridges not checked; cysteine pairing not given here)", "values": [
      {"measurement": "effect of conservative replacement on inhibition of KCNQ channels", "setting": "KCNQ4", "result": "minimal influence on SsTx inhibition of KCNQ channels"}
    ]},
    {"molecule": "R12K: SsTx point mutant, arginine 12 replaced with lysine (EVIKKDTPYKKKKFPYKSECLKACATSFTGGDESRIQEGKPGFFKCTCYFTTG; ends and bridges not checked; cysteine pairing not given here)", "values": [
      {"measurement": "effect of conservative replacement on inhibition of KCNQ channels", "setting": "KCNQ4", "result": "minimal influence on SsTx inhibition of KCNQ channels"}
    ]},
    {"molecule": "B1", "values": [
      {"measurement": "inhibitory activity lost in the presence of 10 μM SsTx, against WT KCNQ4", "setting": "KCNQ4_D266G", "result": 99, "unit": "%"},
      {"measurement": "inhibitory activity lost in the presence of 10 μM SsTx, against WT KCNQ4", "setting": "KCNQ4_D288A", "result": 97, "unit": "%"}
    ]}
  ]
}
